From the nanobody polyreactivity screen of Harvey et al. (2022)

Experiment: yeast display, Sf9 membrane polyspecificity reagent, FACS + sequencing; frameworks hold sequencing errors
Procedure, shortened: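 Genes from sorted yeast were amplified by colony PCR, read by MiSeq 2 × 250 sequencing and filtered on CDR length. These cells carried a synthetic nanobody library in Saccharomyces cerevisiae BJ5465 and were sorted by FACS into low and high (top ~1%) gates on anti-HA and streptavidin fluorescence. Polyreactivity is labelled according to the gate of origin.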

Row | Sequence | polyreactivity (PSR sort gate)
1 | QVQLVESGGGLVQAGGSLRLSCAASGFTLSDYAMGGYRKAAGTERELVAGISSGGSTNYADSVKGRFTISRDNAKNTVYLQMNSLKPEDTAVYYCATRGTFQSHIRSGYWGQGTQVTVSS | high polyreactivity
2 | QVQLVESGGGLVQAGGSLRLSCAASGFTLSRYAMGWYRQAPGKERELVAAIRWSGGSTYYADSVKGRFTISRDNEKNTVYLQMNSLKPEDTAVYYCATRRSGYYSFYYWGQGTQVTGSS | high polyreactivity
3 | QVQLVESGGGLVQAGGSLRLSCAASGFTLTGNAMGWYRQAPGKERELVAAISRNGGSTFYADSVKGRFTISRDNAKNTVYLQMNSLKPEDTAVYYCNASRYRHSAYKYDSWGQGTQVTVSS | high polyreactivity
4 | QVQLVESGGGLVQAGGSLRLSCAASGFTLTSYAMGWYRQAPGKERELVAGISRGGITYYADSVKGRFTISRDNAKNTVYLQMNSLKPEDTAVYYCNARRTRRWPTTPEFTNFGYWGQGTQVTVSS | high polyreactivity
5 | QVQLVESGGGLVQAGGSLRLSCAASGFTLVKYVMGWYIQAPGKEREFVATIRRRGGNTYYADSVKGRFTISRDNAKNTVYLQMNSLKPEDTAVYYCAAKKRSDLRTGDMEYWGQGTQVTVSS | high polyreactivity
6 | QVQLVESGGGLVQAGGSLRLSCAASGFTLWGYAMGWYRQAPGKERELVATISWSGGGTNYADSVKGRFTISRDNAKNTVYLQMNSLKPEDTAVYYCAAGQGSRNQYYYWGQGTQVTVSS | high polyreactivity
7 | QVQLVESGGGLVQAGGSLRLSCAASGFTLYAYVMGWYRQAPGKERDLVAAISRSGGSTYYADSVKGRFTISRDNAKNTVYLQMNSLKPEDTAVYYCAAQYKRYHRLYGYWGQGTQVTVSS | high polyreactivity
8 | QVQLVESGGGLVQAGGSLRLSCAASGFTLYGYAMGWYRQAPGKERELVAGIRYSGGRTYYADSVKGRFTISRDNAKNTVYLEMNSLKPEDTAVYYCAAVFKLSSSFYYWGQGTQVTVSS | high polyreactivity
9 | QVQLVESGGGLVQAGGSLRLSCAASGFTLYPYAMGRYRKAPGKERELVAAISSSSGSTYYADSVKGRFTISRDNAKNTVYVQMNSLKPDDTAVYYCARDSGYYWYYRYGYWGQGTQVTVSS | high polyreactivity
10 | QVQLVESGGGLVQAGGSLRLSCAASGFTLYRYAMGWYRQAPAKERELVAANNSRGGSTYYADSVKGRFTISRDNAKITVYLQMISLKPDDTAVYYCNARRIRGGVRLTSPFYYWGQGTHVTVSS | high polyreactivity
11 | QVQLVESGGGLVQAGGSLRLSCAASGFTLYRYAMVWYRQAPGKERELVAAISRGSSTNYADSVKGRFTISRDNAKNTVYLQMNSLKPEDTAVYYCAARIVTLGSSRARSFTEYYWGQGTQVTVSS | high polyreactivity
12 | QVQLVESGGGLVQAGGSLRLSCAASGFTLYRYVMGWYRQAPGKERELVAAITWSGGSTYYADSVKGRFTISRDNAKNTVYLQMNSLKPEDTAVYYCAARLNVRGWGQGTQVTVSS | low polyreactivity
13 | QVQLVESGGGLVQAGGSLRLSCAASGFTLYSYAMGWYRQAPGKERELVARISRSGGRTYYADSVKGRFTISRDNAKNTVYLQMNSLKPEDTAVYYGNARSLYYSYDYWGQGTQVTVSS | high polyreactivity
14 | QVQLVESGGGLVQAGGSLRLSCAASGFTLYYYAMGWYRQAPGKERELVAAIRSGGRTYYADSVKGRFTISRDNAKNTVYLQMNSLKPEDTAVYYCAARYRVYRGSRGITDYGYWGQGTQVTVSS | high polyreactivity
15 | QVQLVESGGGLVQAGGSLRLSCAASGFTSAVYAMGWYRQAPGKERELVAAIRRGGSTNYADSVKGRFTISRDNAKNTVYLQMNSLKPEDTAVYYCAAAGRGWFGYWGQGTQVTVSS | high polyreactivity
16 | QVQLVESGGGLVQAGGSLRLSCAASGFTSAYNAMGWYRQAPGKERELVATISFRGSSTYYADSVKGRFTISRDNAKNTVYLQMNSQKPEDTAVYYCAADPYDARAVSEPVFFGHYDFWGQGTQVTVSS | low polyreactivity
17 | QVQLVESGGGLVQAGGSLRLSCAASGFTSGYNAMGWYRQAPGKERELVATITRGTRTYYADSVKGRFTISRDNAKNTVYLQMNSLKPEDTAVYYCNARVYYKTYGGYYSWGQGTQVTVSS | high polyreactivity
18 | QVQLVESGGGLVQAGGSLRLSCAASGFTSNEYAMGWYRPAAGTERELVAAISKSGGRTYYADSVKGRFTISRDNAKNTVYLQMNSLKPEDTAVYYCGKRRNTTYYAGGFDYWGQGTKVTVSS | high polyreactivity
19 | QVQLVESGGGLVQAGGSLRLSCAASGFTSWDIDMGCYRQAPGIEREMVAAITGGGTTNYADSVKGRFTISRDNAKNTVYLQMNSLKPEDTAVYYCAAKPWWYSGYDYWGQGTQVTVSS | low polyreactivity
20 | QVQLVESGGGLVQAGGSLRLSCAASGFTSYLYTMGWYRQAPGKERELVAAISNSGGNTYYADSVKGRFTISRDNAKNTVYLQMNSLKPEDTAVYYCAARLFAAKYRYGYWGQGTQVTVSS | high polyreactivity
21 | QVQLVESGGGLVQAGGSLRLSCAASGFTSYTNAMGWYRQAPGKERELVAAIDVSGSDTYYADSVKGRFTISRDNAKNTVYLQMNSLKPEDTAVYYCAAEYYSYYYQGYDYWGQGTQVTVSS | high polyreactivity
22 | QVQLVESGGGLVQAGGSLRLSCAASGFTVAIYAMGWYRHAPGKERELVAAINRCGGSTYYADSVKGRFTISRDNAKNSVYLQMNSLKTEDTAVYYCNKRYRVWFDYWGQGTQVTVSS | high polyreactivity

Row | Sequence | polyreactivity (PSR sort gate)
23 | QVQLVESGGGLVQAGGSLRLSCAASGFTVDLYAMGWYRQAPGKERELVAAITSSGGSTYYADSVKGRFTISRDNAKNTVYLQMNSLTPEDTAVYYCAVAYSSHTSYYSWGQGTQVTVSS | low polyreactivity
24 | QVQLVESGGGLVQAGGSLRLSCAASGFTVHDYAMGWYRQAPGKERELVAAISFSGGRTYYADSVKGRFSISRDNAKNTVYLQMNSLKPEDTAVYYCNAKGQRIKRWRGYWGQGTQVTVSS | high polyreactivity
25 | QVQLVESGGGLVQAGGSLRLSCAASGFTVIDYAMGWYSQAPGKERELVAAITTGTITYYADSVTGRFTISRDNAKNTVYLQMNSLKPEDTAVYYCNADWLTLATTMNYWGQGTQVTVSS | low polyreactivity
26 | QVQLVESGGGLVQAGGSLRLSCAASGFTVSAYALGWYRQAPGKERELVAAISTRGGSTRYADSVKGRFTISRDNAKNTVYLQMNSLKPEDTAVYYCAADTRSFYRYDYWGQGTQVTVSS | high polyreactivity
27 | QVQLVESGGGLVQAGGSLRLSCAASGFTYDSYAMRWYRQAPGKERELVAAITRRGGSTYYADSVKGRFTISRDNAKNTVYLQMNSLKPEDTAVYYCATLRLRSLGQRNYWGQGTQVTVSS | high polyreactivity
28 | QVQLVESGGGLVQAGGSLRLSCAASGFTYGRYAMGWYRQAPRKERELVAAISFSGGRTYYADSVKGRFTISRDNAKNTVYLQMKSLKPEDTAVYYCAARRRQEHVGRSSYARYDYWGQGTQVTVSA | high polyreactivity
29 | QVQLVESGGGLVQAGGSLRLSCAASGFTYHVYAMGWYRQAPGKERELVAAISTGDDTTFYADSVKGRFTISRDNAKNTVYLQMNSLKPEDSAVYYCAAEYQVEYYYTTNFLTTYDYWGQGTQVTVSS | low polyreactivity
30 | QVQLVESGGGLVQAGGSLRLSCAASGFTYKYYAMGWYRQAPGKERELVAAISGSGGRTYYADSVKGRFTISRDNAKNTVYLQMNSLKPEDTAVYYCAAVYLVTRGARYDYWGQGTQVTVSS | high polyreactivity
31 | QVQLVESGGGLVQAGGSLRLSCAASGFTYPANAMGWYRQAPGKERELVASISGSGGRTYYADSVKGRFTISRDNAQNTVYLQMNSLKPEDTAVYYCNRYSYWYRGEYGYWGQGTQVTVSS | high polyreactivity
32 | QVQLVESGGGLVQAGGSLRLSCAASGFTYRVNAMGWYRQATGKERELVAAITVSDGRTYYADSVKGRFTISRDNAKNTVYLQMNSLKPEDTAVYYCAADYKGAFTTDWSSEYEYWGQGTQVTVSS | low polyreactivity
33 | QVQLVESGGGLVQAGGSLRLSCAASGFTYSKNAMGWDRQAPAKERELVAVITRRGGSTYYADSVKGRFTISRDNAKNTVYLQMNSLKPEDTAVYYCAAASFTRRDLDYWGQGTQVTVSS | high polyreactivity
34 | QVQLVESGGGLVQAGGSLRLSCAASGFTYSLYDMGWYRQAPGKERELVAAISSDGSTNYADSVKGRFTISRDNAKNTVYLQMNSLKPEDTAVYYCAADETFLSYWLNYWGQGTQVTVSS | low polyreactivity
35 | QVQLVESGGGLVQAGGSLRLSCAASGFYNTMGWYRQAPRKERELVAAISTGGMTNYADSVKGRFTISRDNAKNTVYLQMNSLKPVDTAVYYCAADGYSTVYSTYDYWGQGTQVTVSS | low polyreactivity
36 | QVQLVESGGGLVQAGGSLRLSCAASGGIFADYAMGWYRQAPGKERELVAAISSGGNTNYADSVKGRFTISRDNAKNTVYLQMNSLKPEDTAVYYCNRDTSYYRYVYYEGNDYWGQGTQVTVSS | low polyreactivity
37 | QVQLVESGGGLVQAGGSLRLSCAASGGIFAYYAMGWYRQAPGKERELVAAITSRGGRTYYADSVKGRFTISRDNAKNTVYFQMNSLKPEDTEVYYCNAERFWPWDYDYWGQGTQVTVSS | high polyreactivity
38 | QVQLVESGGGLVQAGGSLRLSCAASGGIFDIYAMGWYRQAPGKERELVAANRGSGGRTYYADSVKGRFTISRDNAKNTVYLQMNSLKPEDTAVYYCAARPSIVTGLRYGYWGQGTQVTVSS | high polyreactivity
39 | QVQLVESGGGLVQAGGSLRLSCAASGGIFDPYAMGWYRQAPGKERELVAAITNSGGSTYYADSVKGRFTISRDNAKNTVYLQMNSLKPEDTAVYYCAAEGLYVGYDYWGQGTQVTVSS | low polyreactivity
40 | QVQLVESGGGLVQAGGSLRLSCAASGGIFDTNAMGWYRQAPGKEREFVAAITGSGGSTYYADSVKGRFTISRDYAKNSVYLQMNSLKPEDTAVYYCAAPLSYYWVFIVRYGYDYWGQGTQVTVSS | low polyreactivity
41 | QVQLVESGGGLVQAGGSLRLSCAASGGIFDTYAMGWYRQAPGKERELVAAISRRGGNTYYADSVKGRFTISRDNAKNTVYLQMNSLKPEDTAVYYCAAYYHGRMDYWGQGTQVTVSS | high polyreactivity
42 | QVQLVESGGGLVQAGGSLRLSCAASGGIFGANSMGWYRQAPGKERELVATITRGGSTNYADSVKGRFTISRDNAKNTVYLQMNSLKTEDTAVYYCAARFYSRAFWPAYYYWGQGTQVTVSS | high polyreactivity
43 | QVQLVESGGGLVQAGGSLRLSCAASGGIFGFNAMGWYRPAPGKERELVADISDGVRTNYADSVKGRFTISRDNAKNTVYLQMNSLKPEDTAVYYCATDGLFLAWAPLGALAFDYWGQGTQVTVSS | low polyreactivity
